Data set [1] addresses T1, Sulfolobus islandicus PilT N-terminal-domain-containing ATPase (SisPINA), untagged (Sulfolobus islandicus REY15A, UniProt F0NID4 1-505).
T1 sequence (looked up): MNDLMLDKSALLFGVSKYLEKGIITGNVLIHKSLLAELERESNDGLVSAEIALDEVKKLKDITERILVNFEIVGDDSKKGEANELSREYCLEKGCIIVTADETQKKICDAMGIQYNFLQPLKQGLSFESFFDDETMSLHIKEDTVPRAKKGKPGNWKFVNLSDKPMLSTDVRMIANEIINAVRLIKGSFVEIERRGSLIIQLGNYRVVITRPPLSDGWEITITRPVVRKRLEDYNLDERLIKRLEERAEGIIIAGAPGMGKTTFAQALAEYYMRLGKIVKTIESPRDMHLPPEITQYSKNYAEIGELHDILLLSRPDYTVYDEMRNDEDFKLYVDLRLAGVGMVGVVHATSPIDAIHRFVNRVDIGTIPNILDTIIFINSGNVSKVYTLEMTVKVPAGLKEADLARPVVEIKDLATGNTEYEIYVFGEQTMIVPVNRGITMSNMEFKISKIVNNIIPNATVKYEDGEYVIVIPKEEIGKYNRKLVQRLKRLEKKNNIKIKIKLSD
Description: pull-down.

The data set “crystal structure” deals with the molecule itself. Description: crystal structure.

The values that follow come from article PMC5565510 (Journal of molecular biology, 2017).

B1: N-terminal His-tagged SisHjc (enzyme, Sulfolobus islandicus REY15A, UniProt F0NID3 1-143, looked up)
chain: MNAKKRKGSAVERNIVGKLRDKGFAVVRAPASGSKRKDPIPDIIALKSGVIILIEMKSRKDKEGKIYVRREQAEGIMEFARKSGGTLFLGVKKPGVLKFIPFDKLRRTETGNYVADSEIEGLDLEDLVRLVEAKVSKTLDNFL
B1: in data set [1], the binding result was “binds”.

B2: SisPINAK261A, Walker A mutant of SisPINA (enzyme, Sulfolobus islandicus REY15A, UniProt F0NID4 1-505, looked up)
chain: MNDLMLDKSALLFGVSKYLEKGIITGNVLIHKSLLAELERESNDGLVSAEIALDEVKKLKDITERILVNFEIVGDDSKKGEANELSREYCLEKGCIIVTADETQKKICDAMGIQYNFLQPLKQGLSFESFFDDETMSLHIKEDTVPRAKKGKPGNWKFVNLSDKPMLSTDVRMIANEIINAVRLIKGSFVEIERRGSLIIQLGNYRVVITRPPLSDGWEITITRPVVRKRLEDYNLDERLIKRLEERAEGIIIAGAPGMGATTFAQALAEYYMRLGKIVKTIESPRDMHLPPEITQYSKNYAEIGELHDILLLSRPDYTVYDEMRNDEDFKLYVDLRLAGVGMVGVVHATSPIDAIHRFVNRVDIGTIPNILDTIIFINSGNVSKVYTLEMTVKVPAGLKEADLARPVVEIKDLATGNTEYEIYVFGEQTMIVPVNRGITMSNMEFKISKIVNNIIPNATVKYEDGEYVIVIPKEEIGKYNRKLVQRLKRLEKKNNIKIKIKLSD
In general, stoichiometry N refers to the number of molecules, sites or subunits per partner or assembly. Regarding B2, the “stoichiometry N” value in the data set “crystal structure” is 6.
